Results on one sequence are retold here after paper PMC5389570.

The series has as its target RPA heterotrimer (RPA70/RPA32/RPA14) (Homo sapiens) (UniProt P27694+P15927+P35244). As to the kind of experiment: EMSA. Background: Mobility shift assays separate free from complexed probe on a gel.

Chain of RPA heterotrimer (RPA70/RPA32/RPA14) (Homo sapiens) (P27694 whole entry, chain 1 of 3): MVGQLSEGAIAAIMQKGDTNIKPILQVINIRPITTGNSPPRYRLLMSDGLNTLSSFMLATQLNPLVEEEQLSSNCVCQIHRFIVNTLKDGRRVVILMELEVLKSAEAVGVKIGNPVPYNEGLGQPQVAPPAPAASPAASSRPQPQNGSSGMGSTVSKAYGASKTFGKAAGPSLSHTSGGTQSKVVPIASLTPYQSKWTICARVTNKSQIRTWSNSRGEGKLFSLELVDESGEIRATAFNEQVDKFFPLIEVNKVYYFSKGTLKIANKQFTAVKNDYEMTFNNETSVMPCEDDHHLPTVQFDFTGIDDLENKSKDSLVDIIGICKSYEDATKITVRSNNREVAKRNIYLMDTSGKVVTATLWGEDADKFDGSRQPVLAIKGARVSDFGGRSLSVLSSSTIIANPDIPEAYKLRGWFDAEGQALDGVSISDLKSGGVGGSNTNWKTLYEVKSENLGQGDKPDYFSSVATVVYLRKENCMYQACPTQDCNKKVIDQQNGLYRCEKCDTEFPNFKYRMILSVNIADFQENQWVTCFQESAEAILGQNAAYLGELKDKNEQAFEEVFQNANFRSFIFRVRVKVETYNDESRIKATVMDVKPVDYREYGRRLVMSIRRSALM
Chain of RPA heterotrimer (RPA70/RPA32/RPA14) (Homo sapiens) (P15927 whole entry, chain 2 of 3): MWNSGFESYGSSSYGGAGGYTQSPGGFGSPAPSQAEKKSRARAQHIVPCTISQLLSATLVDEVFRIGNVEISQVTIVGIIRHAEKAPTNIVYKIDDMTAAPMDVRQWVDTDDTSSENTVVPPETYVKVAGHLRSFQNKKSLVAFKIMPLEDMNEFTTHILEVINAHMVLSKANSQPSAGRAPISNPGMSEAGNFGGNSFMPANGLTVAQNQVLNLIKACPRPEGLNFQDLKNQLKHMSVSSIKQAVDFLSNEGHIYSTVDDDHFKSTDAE
Chain of RPA heterotrimer (RPA70/RPA32/RPA14) (Homo sapiens) (P35244 whole entry, chain 3 of 3): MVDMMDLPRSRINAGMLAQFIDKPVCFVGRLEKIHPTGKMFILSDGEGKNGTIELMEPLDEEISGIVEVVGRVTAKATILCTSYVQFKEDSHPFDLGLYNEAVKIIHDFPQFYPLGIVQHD

For the sequence “TTTTTTTTTTTTTTTTTTTTTTTTTTTTTTTTTTTTTTTTGGTCGGAGTTAGAGTAGGGTCGGAGTTAGAGTAGCCAGTA [S8 (80-mer)]”, the binding signal (fold vs RPA alone) came out at 2.
